Laboratory results taken from the RNAGym collection of RNA variant scans (doi:10.1073/pnas.2313332121).

B1: TPR t1 (parent)
chain: GACCAAUCUGCCCUCAGAGCUCGAGAACAUCUUCGGAUGCAGAGGAGGCAGGCUUCGGUGGCGCGAUAGCGCCAACGUCCUCAACCUCCAAUGCAUCCCACCACAUGAUGAUGCCUGAAGAGCCUUGGUUUUUUG

Variants of: B1
Test: polymerase ribozyme fitness, log enrichment relative to wild type (log ratio); higher = more active; in vitro selection for triplet polymerase activity
Summary of the method: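 Fitness compares each genotype's enrichment to that of the wild type on a logarithmic scale, averaging replicates with inverse-variance weights. The logarithm is base 2. Enrichment came from Illumina sequencing of input and output libraries after one triplicate round of in vitro selection, which included frozen incubation at −7 °C, of PCR-built, transcribed mutant libraries of each subunit of a heterodimeric triplet polymerase ribozyme. Only genotypes with ≥10 input reads and ≥1 read per output were kept.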

In order of rising “polymerase ribozyme fitness (log ratio)” value:
1. GACCAAUCUGCCCUCAGAGCUCGAGAACAUCUUCGGAUGCAGAGGAGGCAGGCAUCGGUGGCGCGAUAGCGCCAACGUCCUCAACCUCCAAUGCAUCCCACGACAUGAUGAGGCCUGAAGAGCCUUGGUUUUUUG [U54A C102G U112G]  -6.74
2. GACCAAUCUGCCCUCAGAGCUCGAGAACAUCUUCGGAUGCAGGGGAGGCAGGCUUCGGAGGCGCGAUAGCGCCAACGUCCUCAACCUCCAAUGCAUCCUACCACAUGAUGAUGCCUGAAGAGCCUUGGUUUUUUG [A43G U59A C99U]  -6.09
3. GACCAAUCUGCCCUCAGAGCUCGAGAAUAUCUUCGGAUGCAGAGGAGGCAGGCUUCGGUGGCGCGAUAGCGCCAACGUCCUCAACCUCCAAUGCAUCCCACCACAUGAUGAUGCCUCAAGAGCCUUGGUUUUUUG [C28U G117C]  -6
4. GACCAAUCUACCCUCAGAGCUCGAGAACAUUUUCGGAUGCAGAGGAGGCAGGCUUCGGUGCCGCGAUAGCGCCAACGUCCUAAACCUCCAAUGGAUCCCACCACAUGAUGAUGCCUGAAGAGCUUUGGUUUUUUG [G10A C31U G61C C82A C94G C124U]  -5.7
5. GACCAAUCGGCCCUCAGAGCUCGAGAACAUCCUCGGAUGCAGAGGAGGCAGCCUUCGGUGGCGCGAUAGCGCCAACGUCCUCAACCUCCAAUGCAUCCCACCACAUGAUCAUGCCUGAAGAGCCUUGGUUUUUUG [U9G U32C G52C G110C]  -5.7
6. GACCAAUCUGCCCUCAGAGUUCGAGAACAUCUUCGGAUGCAGAGGAGGUAGGCUUCGGUGGUGCGAUAACGCCAACGUCCUCAACCUCCAAUGCAUCCCACCACAUGAUGAUGCCUGAAGAGCCUUGGUUUUUUG [C20U C49U C62U G69A]  -5.65
7. GACCAAUCUGCCCUCAGAGCUCGAGAACAUCUUCAGAUGCAGAGGAGGCAGGCUUCGGUGGCCCGAUAGCGCCAACGUCCUCAACCUCCAAUGCAUCCCACCACAUGAUGAUGCCUGAAGAGCCUUGGUUUUUUG [G35A G63C]  -5.56
8. GACCAAUCUGACCUCAGAGCUCGAGAACAUCUUAGGAUGCAGAGGAGGCAGGCUUCGGUGGCGCGAUAGCGCCAACGUCCUCAACCUGCAAUGCAUCCCACCACACGAUGAUGCCUGAAGAGCCUUGGUUUUUUG [C11A C34A C88G U106C]  -5.02
9. GACCAAUCUGCCCUCAGAGCUAGAGAACAUCUUCGGAUGCAGAGGCGGCAGGCUUCGGUGGCGCGAUAGCGCCAACGUCCUCAACCUCCAAUGCAUCCCACCACAUGAUGAUGCCUGAAGAGCCUUGGUUAUUUG [C22A A46C U131A]  -4.88
10. GAACAAUCUGCCCUCCGAGCUCGAGAACAUCUUCGGAUGCAGAGGAGGCAGGCUUCGGUGGCGCGAUAGCGCCAACGGUCUCAACCUCCAAUGCAUCCCACCACAUGAUGAUGCCUGAAGAGCCUUGGUUUUUUG [C3A A16C U78G C79U]  -4.42
11. GACCAAUCUGCCCUCAGAGCUCGAGAACAUCUUCGGAUGCAGAGGAGGCAGGCUUCGGUGGCGCGAUAGCGCUAACGUCCUCAACCUCCAAUGCAUCCCACCACAUGAAGAUGCCUGAAGAGCCUUGGUUUUUUG [C73U U109A]  -4.25
12. GACCAAUCAGCCCUCAGAGCUCGAGAACAUCUUCGGAUGCAGAGGAGGCAGGCUUCGGUGGCGCGAUAGCGCCAACGUCCUCAACCUCCAAUGCAUCCCACCACAUAAUGAUGCCUGAAGAGCCUUGGUUUUUUG [U9A G107A]  -4.08
13. GACCAAUCUGCCCUCAGAGGUCGAGAACAUCUUCGGAUGCAGAGGAGGCAGGCUUCGAUGGCGCGAUAGCGCCAACGUCCUCAACCUCGAAUGCAUCCCACCACAUGAUGAUGCCUUAAGAGCCUUGGUUUUUUG [C20G G58A C89G G117U]  -4.04
14. GACCAAUCUGCCCUCAGAGCUGGAGAACAUCUUCGGAUGCAGAGGCGGCAGGCUUCGGUGGCGCGAUAGCGCCAACGUCCUCAACCUCCAAUGCAUCCCACCACAUGAUGAUGCCUGAAGAGCCUUGGUUUUUUG [C22G A46C]  -3.97
15. GACCAAUCUGCCCUCAGAGCUCGAGAACAUCUUCGGAUGCAGAGGAGGCAGGCUUCGGUGGCGCGAUAGCACCUACGUCCUCAACCUCCAAUGCAUCCCACCACAUGAUGAUGCCUGAAGAGCCUUGGUUUUUUG [G71A A74U]  -3.83
16. GACCAAUCUGCCCUCAGAGCUCGAGAACAUCUUCGGAUGCAGGGGAGGCAGGCUUAUGCGGCGCGAUAGCGCCAACGUCCUCACCUUCCAAUGCAUCCCACCACAUGAUGAUGCCUGAAGAGCCUUGGUUUUUUG [A43G C56A G57U U59C A84C C86U]  -3.81
17. GACCAAUCUGCCCUCAGAGCUAGAGAACAUCUUCGGAUGCAGAGGAGGCAGGCUUCGGUGGCGCGAUAGCGCCAACGUCCUCAACCUCCAAUGCAUCCCACCACAUGAUGAUGCGUGAAGAGCCUUGGUUUUUUG [C22A C115G]  -3.77
18. GACCAAUCUGCCCUCAGAGCUCGAGAACAUCUUCGGAUGCAGAGGAGGCAGGCUUCGGUGGCGCGAUAGCGCCAACGUCCUCAACCUCCAAUGCAUCCUAACACAUGAUGAUGCCUGAAGGGCGUUGGUUUUUUG [C99U C101A A121G C124G]  -3.31
19. GAGCAAUCUGCGCUCAGAGCUCGAGAACAUCUUCGGAUGAAGAGGAGGCAGGCUUCGGUGGCGCGAUAGCGCCAACGUCCUCAACCUCCAAUGCAUCCCACCACAUGAUGAUGCCUGAAGAGCCUUGGUUUUUUG [C3G C12G C40A]  -3.27
20. GGCCAAUCUGCCCUCAGAGCUCGAGAACAUCUUCGGAUGCAGAGGAGGCAGGCUUCGGUGGCGCGAUAGCGUCUACGUCCUCAACCUCCAAUGCAUCCCACUACAUGAUGAUGCCUGAAGAGCCUUGGUAUUUUG [A2G C72U A74U C102U U130A]  -3.21
21. GACCAAUCUGCCCUCAGAGCUCGAGAACAUCUUCGGAUGCAGAGGACGCAGGCUUCGGUGGCGCGAUAGCGCCAACGACCUCAACCUCCAAUGCAUCCCACCACCUGAUGAUGCCUGAACAGCCUUGGUCUUUUG [G47C U78A A105C G120C U130C]  -3.11
22. GACCAAUCUGCCCUCAGAGCUCGAGAACAUCUUCGGAUGCAGAGGAGGCAGGCUUCGGUGGCGCGAUAGCGCGAACGUCCUCAACCUCCAAUGCAUCCCACCACAUGAUGAUGCCUUAAGAGCCUUGGUUUUUUG [C73G G117U]  -3.09
23. GACCAAUCUGCCCUCAGAGCUCGAGAACAUCUUCGGAUGUAGAGGAGGCAGGCUUCGGUGGCCCGAUAGCGCCCACGUCCUCAACCUCCAAUGCAUCCCACCACAUGAUGAUGCCUGAAGAGCCUUGGUUAUUUG [C40U G63C A74C U131A]  -2.75
24. GACCAAACUGCCCUCAGAGCUCGAGAACAUCUUCGGAUGCAGAGGAGGUAGGUUUCGGAGGCGCGAUAGUGCCAAAGUCCUCAACCUCCAAUGCAUCCCACCACAUGAUGAUGCCUGAAGAGCCUUGGUUUUUUG [U7A C49U C53U U59A C70U C76A]  -2.44
25. GACCAAUCUGCCCUCAGAGCUCGAGAACAUCUUCGGAUGCAGAGGAGGCAGGCUUCGGUGGCGUGAUAGCGCCAACGUCCUCUACCUCCAAUGCGUCCCACCACAUGAUGAUGCCUGAAGAGCCUUCGUUUUUUG [C64U A83U A95G G127C]  -2.12
26. GACCAAUCUGUCCUCAGAGCUCGAGAACAUCUUCGGAUGCAGAGGAGGCAGGCUUCGGGGGCGCGAUAGCGCCAACGUCCUCAACCUCCAAUCCAUCCCACCACAUGAUGAUGCCUGAAGAGCCUUGGCUUUUUG [C11U U59G G93C U129C]  -1.93
27. GAUCAAUCUGCCCUCAGAGCUCGAGAACAUCUUCGGAUGCAGAGGAGGCAGGCUUCGGUGGCGCGAUAGCGCCAACGUCCUCAACCUCCAUUGCAUCCCACCACAUGAUGAUGCUUGAAGAGCCUUGGUUUUUUG [C3U A91U C115U]  -1.86
28. GACCAAUCUGCCCUCAGAGCUCGAGAACAUCUUCGGAUGCAGAGGAGGCAGGCUUCGGUGGCGCGAUAGCGCCAACGUCCUCAAGCUCCAAUGCAUCCCACCACAUGAUGAUGCCUGAAGAGCCUUGGUUUUUUG [C85G]  -1.74
29. GACCAAUUUGUCCUCAGAGCUCGAGAACAUCUUCGGAUGCAGAGGAGGCAGGCUUCGGUGGCGCGAUAGCGCCAACGUCCUCAACCUCCAAUUCAUCCCACCACAUGAUGAUGCCUGAAGAGCCUUGGUUUUUUG [C8U C11U G93U]  -1.31
30. GACCAAUCUGCCCUCAGAGCUCGAGAACAUCUUCGGAUGCAGAGGAGGCAGGCUUCGGUGGCGCGAUAGCGCCAACAUCCUCAACCUCCAAUGCAUCCCACCACAUGAUAAUGCCUGAAGAGCCUUGGUUUUUUG [G77A G110A]  -1.28
31. GACCAAUCUGCCCUCAGAGCUCGAGAACAUCUUCGGAUGCAGACGAGGCAGGCUUCGGUGGCGCGAUAGCGCCAACGUCCUCAACCACCAAUGCAUCCCACCACAUGAUGAUGCCUGAAGAGCCUUGGUUUUUUG [G44C U87A]  -1.07
32. GACCAAUCUGCCCUCAGAGCUCGAGAACAUCUUCGGAUGCAGAGGAGGCAGGCUUCGGUGGCGCGAUAGCGCCAACGUCCUAAACCUCCAAUCCAUCCCACCACAUGAUGAUGCCUGAAGAGCCUUGGUUUUUUG [C82A G93C]  -1.06
33. GACCAAUCUGCCCUCAGAGCUCGAGAACAUCUUCGGAUGCAGAGGAGGCAGGCGUCGGUGGCGCGAUAGCGUCAACGUCCUCAACCUCCAAUGCAUCCCACCACAUGAUGAUGCCUGAAGAGCCUUGGCUUUUUG [U54G C72U U129C]  -0.965
34. GACCAAUCUGCCCUCAGAGCUCGAGAACAUCUUCGGAUGCAGAGGAGGCAGGCUUCUGUGGCGCGAUACCGCCAACGUCCUCAACCUCCAAUGCAUCCCACCACAUGAUGAUGCCUGAAGAGCCUUGGUUUUUUG [G57U G69C]  -0.847
35. GACCAAUCUGCCCUCAGAGCUCGAGAACAUCUUCGGAUGCAGAGGAGGCAGGCUUCGGUGGCGCGAUACCGCAAACGUCCUCAACCUCCAAUGCAUCCCACCACAUGAUGAUGCCUGAAGAACGUUGGUUUUUUG [G69C C73A G122A C124G]  -0.387
36. GAACAAUGUGCCCUCAGAGCUCGAGAACAUCUUCGGAUGCAGAGGAGGCAGGCUUCGGUGGCCCGAUAGCGCCAACGUCCUCAACCUCCAAUGCCUCCCACCACAUGAUGAUGCCUAAAGAGCCUUGUUUUUUUG [C3A C8G G63C A95C G117A G128U]  -0.17
37. GACCAAUUUGCCCUCAGAGCUCGAGAACAUCUUCGGAUGCAGAGGAGGCAGGCUUCGGUGGCGCGAUAGCGCCAACGUCCUCAACCUCCAAUACAUCCCACCACAUGAUGAUGCCUGAAGAGCCUUGGUUUUUUG [C8U G93A]  0.108
38. GACCGAUUUGCCCUCAGAGCUCGAGAACAUCUUCGGAUGCAGAGGAGGCAGGCUUCGGUGGCUCGAUAGAGCCAACGUCCUCAACGUCCAAUGCAUCCCACCACAUGAUGAUGCCUGAAGAGCCUUGGUUUUUUG [A5G C8U G63U C70A C86G]  0.268
39. GACCAAUCUGCCCUCAGAGCUCGAGAACAUCUUCGGAUGCAGAGGAGGCAGGCUUCGGUGGCGCGAUAGCGCCAACGUCCUCAACCUCCGAUGCAUCCCACAACAUGAUGAUGCCUGAAGAGCAUUGGUUUUUUG [A90G C102A C124A]  0.51
40. GACCAAUCUGCCUUCAGAGCUCGAGAACAUCUUCGGAUACAGAGGAGGCAGGCUUCGGUGGCGCGAUAGCGCCAACGUCCUCAACCUCCAGUGCAUCCCACCACAUGAUGAUGCCUGAAGAGACUUGGUUUUUUG [C13U G39A A91G C123A]  0.557
41. GACCAAUCUGGGCUCAGAGCUCGAGAACAUCUUCGGAUGCAGAGGAGACAGGCUUCGGUGGCGCGAUAGCGCCAACGUCCUCAACCUCCAAUGCAUCCCACCACAUGAUGAUGCCUGAACAGCCUUGGUUUUUUG [C11G C12G G48A G120C]  0.765
42. GACCAAGCUGCCCUCAGAGCUCGAGAACAUCUUCGGAUGCGGAGGAGGCAGGCUUCGGUGGCGCGAUAGCGCCUACGUCCUCAACCUCCAAUGCAUCCCACCACAAGAUGAUGCCUGAAGAGCCUUGGUCUUUUG [U7G A41G A74U U106A U130C]  0.791
